Assay: Dynamic light scattering
Type: physicochemical
Conditions: PBS, 100 mM MgCl2; insulin 25 µM, dAb 1 mg/mL; Figure S2 and S3

With “insulin: human insulin obtained from R&D Systems; analyte of the assay” the “aggregation under buffer conditions (DLS)” value was “No aggregation”.
